Assay [1] addresses Cytotoxic Lymphocyte Maturation Factor (CLMF) 75 kDa heterodimer (human) (UniProt P29460). Description: 125I-CLMF binding to PHA-activated lymphoblasts, supernatant at 1/2 dilution; competitor: CLMF receptor on cells.
Assay [2] has as its target CLMF receptor on PHA-activated peripheral blood lymphoblasts (human). Description: Scatchard plot analysis of equilibrium binding of 125I-CLMF to PHA-activated lymphoblasts.

Sequence of CLMF receptor on PHA-activated peripheral blood lymphoblasts (human) (Q99665 24-862, chain 2 of 2, other chains not shown): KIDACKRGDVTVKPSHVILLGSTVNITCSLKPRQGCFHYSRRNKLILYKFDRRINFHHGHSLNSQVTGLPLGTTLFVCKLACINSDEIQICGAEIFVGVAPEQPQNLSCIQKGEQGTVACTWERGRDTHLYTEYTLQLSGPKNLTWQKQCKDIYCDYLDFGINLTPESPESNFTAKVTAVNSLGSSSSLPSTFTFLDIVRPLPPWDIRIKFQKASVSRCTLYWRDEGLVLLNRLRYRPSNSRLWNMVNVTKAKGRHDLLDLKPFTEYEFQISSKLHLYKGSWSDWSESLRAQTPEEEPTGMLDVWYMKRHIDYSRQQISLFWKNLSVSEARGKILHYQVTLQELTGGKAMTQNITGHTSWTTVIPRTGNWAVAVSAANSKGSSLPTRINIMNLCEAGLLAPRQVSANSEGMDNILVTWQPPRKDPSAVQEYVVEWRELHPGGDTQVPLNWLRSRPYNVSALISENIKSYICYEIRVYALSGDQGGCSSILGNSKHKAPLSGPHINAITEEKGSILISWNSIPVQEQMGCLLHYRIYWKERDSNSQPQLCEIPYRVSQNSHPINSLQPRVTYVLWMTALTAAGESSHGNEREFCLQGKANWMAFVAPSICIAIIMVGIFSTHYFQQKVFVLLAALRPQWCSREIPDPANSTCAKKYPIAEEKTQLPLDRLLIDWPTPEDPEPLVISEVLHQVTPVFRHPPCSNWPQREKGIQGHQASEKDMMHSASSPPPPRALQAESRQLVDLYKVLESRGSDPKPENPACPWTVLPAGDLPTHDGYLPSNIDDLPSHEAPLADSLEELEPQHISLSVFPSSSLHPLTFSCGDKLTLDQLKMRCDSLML

In assay [1], Control monoclonal antibody yielded a % inhibition of 125I-CLMF binding to the lymphoblasts of 10%.

Usually Kd stands for the concentration at which binding is half-saturated. Lower therefore signals higher affinity. Regarding “Cytotoxic Lymphocyte Maturation Factor (CLMF) 75 kDa heterodimer (from UniProt P29460 23-328; P29459 23-219) (ligand)”, the Kd in assay [2] is 0.2 nM. In other words, the sub-nanomolar range.

(Values after US8110187.)
